From paper PMC10439943, “SCF^RMF mediates degradation of the meiosis-specific recombinase DMC1” (Nature Communications, 2023)

T1: MBP-RMF1 (Arabidopsis thaliana, UniProt Q9M365 1-359)
T1 construct: RMF1, F-box protein, Arabidopsis thaliana, AGI AT3G61730; CDS cloned into pMAL-c5X; also called AT3G61730; source: E. coli Rosetta (DE3) or BL21 (DE3) pLysS, purified (Amylose Resin); not shown: MBP, N-terminal, kept
T1 sequence (looked up): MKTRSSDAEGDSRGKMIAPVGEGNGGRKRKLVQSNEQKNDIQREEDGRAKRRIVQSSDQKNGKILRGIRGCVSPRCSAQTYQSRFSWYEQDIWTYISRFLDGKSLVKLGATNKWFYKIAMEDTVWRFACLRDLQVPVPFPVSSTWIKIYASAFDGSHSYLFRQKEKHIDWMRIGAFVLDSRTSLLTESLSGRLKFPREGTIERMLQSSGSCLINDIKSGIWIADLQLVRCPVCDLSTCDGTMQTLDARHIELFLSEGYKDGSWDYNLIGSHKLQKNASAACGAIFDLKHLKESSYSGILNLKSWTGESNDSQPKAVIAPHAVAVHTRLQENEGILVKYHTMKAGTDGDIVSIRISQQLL

T2: MBP-RMF2 (Arabidopsis thaliana, UniProt Q9FGB8 1-355)
T2 construct: RMF2, F-box protein, Arabidopsis thaliana, AGI AT5G36000; CDS cloned into pMAL-c5X; also called AT5G36000; source: E. coli Rosetta (DE3) or BL21 (DE3) pLysS, purified (Amylose Resin); not shown: MBP, N-terminal, kept
T2 sequence (looked up): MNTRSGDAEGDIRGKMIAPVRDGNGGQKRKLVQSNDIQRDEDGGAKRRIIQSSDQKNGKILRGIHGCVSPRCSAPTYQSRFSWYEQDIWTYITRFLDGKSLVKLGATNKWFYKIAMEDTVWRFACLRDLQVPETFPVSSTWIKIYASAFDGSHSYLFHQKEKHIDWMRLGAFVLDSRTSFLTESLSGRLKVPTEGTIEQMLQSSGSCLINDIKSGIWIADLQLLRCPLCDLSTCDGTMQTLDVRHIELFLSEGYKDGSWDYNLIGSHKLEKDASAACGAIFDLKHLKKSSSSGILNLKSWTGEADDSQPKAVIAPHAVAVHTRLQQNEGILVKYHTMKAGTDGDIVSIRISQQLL

T3: SUMO-HIS-RMF1 (Arabidopsis thaliana, UniProt Q9M365 1-359)
T3 construct: RMF1, F-box protein, Arabidopsis thaliana, AGI AT3G61730; CDS cloned into pSUMO (on pET28a); also called AT3G61730; not shown: SUMO, N-terminal, kept; HIS, N-terminal, kept
T3 sequence (looked up): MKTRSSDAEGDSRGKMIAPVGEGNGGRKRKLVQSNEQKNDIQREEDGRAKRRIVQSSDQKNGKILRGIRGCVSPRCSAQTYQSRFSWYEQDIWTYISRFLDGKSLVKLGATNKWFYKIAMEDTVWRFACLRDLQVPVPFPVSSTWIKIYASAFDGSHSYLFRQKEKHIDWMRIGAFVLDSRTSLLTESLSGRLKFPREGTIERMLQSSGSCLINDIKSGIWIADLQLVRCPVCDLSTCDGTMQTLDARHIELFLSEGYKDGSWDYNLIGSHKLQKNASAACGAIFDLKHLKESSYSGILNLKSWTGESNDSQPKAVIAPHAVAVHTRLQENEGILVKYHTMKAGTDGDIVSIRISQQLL

T4: SUMO-HIS-RMF2 (Arabidopsis thaliana, UniProt Q9FGB8 1-355)
T4 construct: RMF2, F-box protein, Arabidopsis thaliana, AGI AT5G36000; CDS cloned into pSUMO (on pET28a); also called AT5G36000; not shown: SUMO, N-terminal, kept; HIS, N-terminal, kept
T4 sequence (looked up): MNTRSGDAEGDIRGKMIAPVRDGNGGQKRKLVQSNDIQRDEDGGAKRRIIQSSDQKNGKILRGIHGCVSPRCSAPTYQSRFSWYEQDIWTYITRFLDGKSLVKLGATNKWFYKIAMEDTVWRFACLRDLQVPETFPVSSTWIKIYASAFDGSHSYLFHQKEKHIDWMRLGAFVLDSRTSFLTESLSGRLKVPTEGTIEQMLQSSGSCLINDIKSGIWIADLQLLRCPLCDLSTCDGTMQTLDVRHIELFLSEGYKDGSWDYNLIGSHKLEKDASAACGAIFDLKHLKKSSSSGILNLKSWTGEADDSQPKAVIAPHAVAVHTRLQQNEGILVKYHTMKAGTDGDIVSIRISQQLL


Experiments:
Experiment in all cases: pull-down; 2 µg of each GST-, HIS- or MBP-tagged protein mixed in 50 mM Tris-HCl pH 7.4, 150 mM NaCl, 25 mM imidazole, 0.5% NP-40, 4 °C 4 h; HIS-tagged protein captured on Ni-NTA HIS Bind Resin; western blot
Settings in all cases: both partners purified
MBP-RMF1 = molecular target: T1, MBP-RMF1
MBP-RMF2 = molecular target: T2, MBP-RMF2
SUMO-HIS-RMF1 = molecular target: T3, SUMO-HIS-RMF1
SUMO-HIS-RMF2 = molecular target: T4, SUMO-HIS-RMF2

Row | Binder | binding result (MBP-RMF1) | binding result (MBP-RMF2) | binding result (SUMO-HIS-RMF1) | binding result (SUMO-HIS-RMF2)
1 | SUMO-HIS-DMC1 (natural protein, Arabidopsis thaliana, UniProt Q39009 1-344, looked up, DMC1, meiosis-specific RecA-family recombinase, Arabidopsis thaliana, AGI At3G22880; CDS cloned into pSUMO (on pET28a); also called At3G22880; not shown: SUMO, N-terminal, kept; HIS, N-terminal, kept) MMASLKAEETSQMQLVEREENDEDEDLFEMIDKLIAQGINAGDVKKLQEAGIHTCNGLMMHTKKNLTGIKGLSEAKVDKICEAAEKIVNFGYMTGSDALIKRKSVVKITTGCQALDDLLGGGIETSAITEAFGEFRSGKTQLAHTLCVTTQLPTNMKGGNGKVAYIDTEGTFRPDRIVPIAERFGMDPGAVLDNIIYARAYTYEHQYNLLLGLAAKMSEEPFRILIVDSIIALFRVDFTGRGELADRQQKLAQMLSRLIKIAEEFNVAVYMTNQVIADPGGGMFISDPKKPAGGHVLAHAATIRLLFRKGKGDTRVCKVYDAPNLAEAEASFQITQGGIADAKD | binds | binds | – | –
2 | SUMO-HIS-DMC1-6KR (natural protein, Arabidopsis thaliana, UniProt Q39009 1-344, looked up, DMC1, Arabidopsis thaliana, AGI At3G22880; CDS with all six lysines K45, K46, K70, K101, K162 and K290 changed to arginine, cloned into pSUMO (on pET28a); not shown: SUMO, N-terminal, kept; HIS, N-terminal, kept) MMASLKAEETSQMQLVEREENDEDEDLFEMIDKLIAQGINAGDVRRLQEAGIHTCNGLMMHTKKNLTGIRGLSEAKVDKICEAAEKIVNFGYMTGSDALIRRKSVVKITTGCQALDDLLGGGIETSAITEAFGEFRSGKTQLAHTLCVTTQLPTNMKGGNGRVAYIDTEGTFRPDRIVPIAERFGMDPGAVLDNIIYARAYTYEHQYNLLLGLAAKMSEEPFRILIVDSIIALFRVDFTGRGELADRQQKLAQMLSRLIKIAEEFNVAVYMTNQVIADPGGGMFISDPKRPAGGHVLAHAATIRLLFRKGKGDTRVCKVYDAPNLAEAEASFQITQGGIADAKD | binds | binds | – | –
3 | GST-ASK1 (natural protein, Arabidopsis thaliana, UniProt Q39255 1-160, looked up, ASK1 (Arabidopsis Skp1-like1), Arabidopsis thaliana, AGI AT1G75950; CDS cloned into pGEX 4T-1; also called AT1G75950; not shown: GST, N-terminal, kept) MSAKKIVLKSSDGESFEVEEAVALESQTIAHMVEDDCVDNGVPLPNVTSKILAKVIEYCKRHVEAAASKAEAVEGAATSDDDLKAWDADFMKIDQATLFELILAANYLNIKNLLDLTCQTVADMIKGKTPEEIRTTFNIKNDFTPEEEEEVRRENQWAFE | – | – | binds | binds
